Test results reported in IntAct's records for PubMed 12393858.

Target: ipp2_human PPP1R2 (UniProt P41236)
Sequence (P41236 whole entry): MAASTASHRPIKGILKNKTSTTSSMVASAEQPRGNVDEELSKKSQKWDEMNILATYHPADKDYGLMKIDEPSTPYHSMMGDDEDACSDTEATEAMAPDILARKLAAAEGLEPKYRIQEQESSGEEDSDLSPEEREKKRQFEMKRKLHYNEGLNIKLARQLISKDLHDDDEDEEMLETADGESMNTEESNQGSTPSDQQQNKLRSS

Serine/threonine-protein kinase LMTK2 (Homo sapiens), Q8IWU2 V1356A;F1358A
effect of a mutation on the interaction: disrupting interaction
